Assay results reported in US20160298152A1 (CALIFORNIA INSTITUTE OF TECHNOLOGY, published 2016).

How the values were obtained:
[1] = molecular target: T1, PfTrpA (α-subunit of tryptophan synthase from Pyrococcus furiosus) (Pyrococcus furiosus, UniProt Q8U094 1-248); experiment: inferred from inhibition of enzyme activity on adding PfTrpA
T1 construct: Expressed in E. coli; Purified by Q HP HiTrap flow-through, ammonium sulfate precipitation and phenyl Sepharose chromatography; also called P. furiosus TrpA
T1 sequence (looked up): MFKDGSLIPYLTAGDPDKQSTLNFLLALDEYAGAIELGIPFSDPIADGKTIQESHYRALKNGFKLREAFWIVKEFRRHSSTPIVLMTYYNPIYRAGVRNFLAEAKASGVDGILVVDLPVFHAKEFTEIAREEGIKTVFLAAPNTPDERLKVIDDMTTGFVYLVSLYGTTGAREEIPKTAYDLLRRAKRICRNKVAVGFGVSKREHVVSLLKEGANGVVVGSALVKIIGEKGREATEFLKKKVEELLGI

[2] = molecular target: T2, PfTrpB (wild-type β-subunit of tryptophan synthase from Pyrococcus furiosus)
T2 chain: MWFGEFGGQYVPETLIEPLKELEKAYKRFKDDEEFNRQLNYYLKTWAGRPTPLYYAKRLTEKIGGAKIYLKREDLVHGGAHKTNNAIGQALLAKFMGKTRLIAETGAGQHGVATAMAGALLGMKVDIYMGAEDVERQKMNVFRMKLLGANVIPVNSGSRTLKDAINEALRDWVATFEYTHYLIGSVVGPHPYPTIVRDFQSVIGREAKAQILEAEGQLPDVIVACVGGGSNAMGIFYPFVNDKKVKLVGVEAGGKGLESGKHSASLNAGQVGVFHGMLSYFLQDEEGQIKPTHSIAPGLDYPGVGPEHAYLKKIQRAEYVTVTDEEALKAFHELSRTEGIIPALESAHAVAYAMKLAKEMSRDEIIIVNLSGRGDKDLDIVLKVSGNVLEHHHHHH

[3] = molecular target: T3, PfTrpB^0B2 (PfTrpB P12L, E17G, I68V, T292S, F274S, T321A)
T3 chain: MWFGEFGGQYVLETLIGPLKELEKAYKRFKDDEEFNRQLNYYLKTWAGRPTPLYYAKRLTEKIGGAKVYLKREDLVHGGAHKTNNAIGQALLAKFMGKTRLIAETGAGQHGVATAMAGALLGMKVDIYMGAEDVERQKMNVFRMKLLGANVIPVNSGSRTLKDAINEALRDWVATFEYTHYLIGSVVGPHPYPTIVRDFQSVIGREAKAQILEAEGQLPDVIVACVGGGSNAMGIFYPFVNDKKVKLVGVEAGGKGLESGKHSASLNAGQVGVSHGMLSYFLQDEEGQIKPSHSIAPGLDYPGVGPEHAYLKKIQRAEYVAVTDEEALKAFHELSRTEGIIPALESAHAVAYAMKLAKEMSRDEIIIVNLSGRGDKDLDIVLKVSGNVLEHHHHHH

[4] = molecular target: T4, PfTrpB^4D11 (PfTrpB E17G, I68V, T292S, F274S, T321A)
T4 chain: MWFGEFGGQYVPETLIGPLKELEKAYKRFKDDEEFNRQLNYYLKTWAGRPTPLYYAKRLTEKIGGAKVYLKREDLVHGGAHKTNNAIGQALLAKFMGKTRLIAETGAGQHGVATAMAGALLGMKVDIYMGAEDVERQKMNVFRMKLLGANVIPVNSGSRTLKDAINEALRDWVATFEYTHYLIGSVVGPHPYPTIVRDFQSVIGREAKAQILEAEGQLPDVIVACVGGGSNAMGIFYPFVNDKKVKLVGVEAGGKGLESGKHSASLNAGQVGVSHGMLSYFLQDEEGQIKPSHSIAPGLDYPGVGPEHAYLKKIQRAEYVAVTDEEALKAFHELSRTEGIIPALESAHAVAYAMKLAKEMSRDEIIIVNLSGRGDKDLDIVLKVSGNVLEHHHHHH

[5] = molecular target: T5, PfTrpB^2G9 (PfTrpB T292S)
T5 chain: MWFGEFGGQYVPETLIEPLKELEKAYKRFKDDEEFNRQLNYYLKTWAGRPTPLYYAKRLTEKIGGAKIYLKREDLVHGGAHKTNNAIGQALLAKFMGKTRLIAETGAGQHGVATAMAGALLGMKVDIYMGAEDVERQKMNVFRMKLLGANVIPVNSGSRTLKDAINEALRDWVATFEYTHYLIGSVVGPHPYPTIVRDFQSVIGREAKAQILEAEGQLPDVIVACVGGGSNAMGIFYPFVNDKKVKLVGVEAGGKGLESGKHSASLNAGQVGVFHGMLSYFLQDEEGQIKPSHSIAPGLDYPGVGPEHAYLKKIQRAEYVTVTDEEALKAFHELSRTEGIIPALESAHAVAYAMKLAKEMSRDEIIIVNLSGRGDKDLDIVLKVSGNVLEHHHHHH

[6] = molecular target: T6, TmTrpB (wild-type β-subunit of tryptophan synthase from Thermotoga maritima)
T6 chain: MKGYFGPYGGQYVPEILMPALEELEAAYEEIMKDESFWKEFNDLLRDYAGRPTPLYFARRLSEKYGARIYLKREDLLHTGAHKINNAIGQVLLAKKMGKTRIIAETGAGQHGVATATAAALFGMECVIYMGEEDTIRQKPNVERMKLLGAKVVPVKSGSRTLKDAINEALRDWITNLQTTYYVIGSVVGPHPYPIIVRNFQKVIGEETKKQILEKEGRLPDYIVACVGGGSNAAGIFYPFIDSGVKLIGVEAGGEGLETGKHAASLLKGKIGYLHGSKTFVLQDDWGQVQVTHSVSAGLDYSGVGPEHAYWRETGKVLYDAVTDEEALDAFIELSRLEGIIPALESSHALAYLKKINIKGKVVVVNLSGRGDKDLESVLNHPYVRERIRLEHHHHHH

B1: PfTrpB^0B2 (PfTrpB P12L, E17G, I68V, T292S, F274S, T321A) (enzyme)
chain: MWFGEFGGQYVLETLIGPLKELEKAYKRFKDDEEFNRQLNYYLKTWAGRPTPLYYAKRLTEKIGGAKVYLKREDLVHGGAHKTNNAIGQALLAKFMGKTRLIAETGAGQHGVATAMAGALLGMKVDIYMGAEDVERQKMNVFRMKLLGANVIPVNSGSRTLKDAINEALRDWVATFEYTHYLIGSVVGPHPYPTIVRDFQSVIGREAKAQILEAEGQLPDVIVACVGGGSNAMGIFYPFVNDKKVKLVGVEAGGKGLESGKHSASLNAGQVGVSHGMLSYFLQDEEGQIKPSHSIAPGLDYPGVGPEHAYLKKIQRAEYVAVTDEEALKAFHELSRTEGIIPALESAHAVAYAMKLAKEMSRDEIIIVNLSGRGDKDLDIVLKVSGNVLEHHHHHH
notes: not shown: C-terminal his-tag from pET22(b)+
B1: binds [1].

B2: PfTrpA (α-subunit of tryptophan synthase from Pyrococcus furiosus) (protein)
chain: MFKDGSLIPYLTAGDPDKQSTLNFLLALDEYAGAIELGIPFSDPIADGKTIQESHYRALKNGFKLREAFWIVKEFRRHSSTPIVLMTYYNPIYRAGVRNFLAEAKASGVDGILVVDLPVFHAKEFTEIAREEGIKTVFLAAPNTPDERLKVIDDMTTGFVYLVSLYGTTGAREEIPKTAYDLLRRAKRICRNKVAVGFGVSKREHVVSLLKEGANGVVVGSALVKIIGEKGREATEFLKKKVEELLGI
For B2, the “increase in catalytic efficiency” value [2] was 12-fold increase in catalytic efficiency, the kcat change with TrpA [2] was 3.2 fold and the kcat change with TrpA [3] was 0.04 fold. It also gave a kcat change with TrpA [4] of 0.3 fold and a kcat change with TrpA [5] of 0.34 fold.

B3: TmTrpA (α-subunit of tryptophan synthase from Thermotoga maritima) (protein)
chain: MKGFIAYIPAGFPDLETTRKILIALNELGITGVEIGVPFSDPVADGPVIQLAHSVALRNGVTIKKILEMLSEISVDYDLYLMSYLNPIVNYPEGKEKLLDELKKLGVKGLIIPDLPLREVKNVDIAYPIVPFVAPNTKDEEIDLINSVQAPFVYYISRYGVTGEREDLPFADHIKRVKERIKLPLFVGFGISRHEQVKKVWEIADGVIVGSALVRIMEENPKDEIPRKVVEKVKELLGK
Work on B3 yielded a kcat (s^-1) of the TmTrpS complex [6] of 2.2 s⁻¹.
